Reference: patent US20120149645A1, “COMPOSITIONS AND MODULATION OF MYOCYTE ENHANCER FACTOR 2 (MEF2)” (EMORY UNIVERSITY, priority 2010, published 2012)

Key:
Assay type in all cases: cell-based, mouse
SN4741 cells [1] = test: Subcellular localization of over-expressed MEF2D constructs; details: over-expressed in SN4741 cells
Text: (A) Lack of mitochondrial localization by ΔN30MEF2D. […] VDAC, PARP and c-Raf are Mt, Nu and Cy markers, respectively. Control indicates the control vector group. (B) Immunocytochemistry analysis of mitochondrial localization of transfected Flag-MEF2D. […] Experiments were repeated four times. (C, D) Requirement of mtHsp70 for mitochondria-targeting of MEF2D (n=4; **p<0.01). Control indicates untreated. […]. Knocking down mouse mtHsp70 by siRNA reduced MEF2D level in purified mitochondria from SN4741 cells (C). […] MnSOD is a known mtHsp70-imported mitochondrial matrix protein.
(A) Diagrams of Mt2DVP16 and MtND6. Mt2DVP16 was constructed by fusion of transactivation domain (TAD) of VP16 with DNA-binding domain of MEF2D and a mitochondria-targeting sequence (Mito). […] (C) Over-expression of Mt2DVP16 attenuated MEF2D siRNA-induced reduction of ND6 expression (n=3, **P<0.01).
Control indicates the group co-tranfected with control vector.
SN4741 cells or primary midbrain DA neurons were plated on glass slides in 24-well plates. Localizations of endogenous and exogenous MEF2D were visualized on a Zeiss LSM5 PASCAL confocal microscope. […] Quantification of colocalization of signals was done using “Colocalization Analysis” program of software Image Pro (Media Cybernetics). […]

SN4741 cells [2] = test: WST-1 cell viability assay
Procedure: (A) Reduced binding of MEF2D to ND6 after neurotoxin treatment. SN4741 cells were treated with MPP+ (25 μM) or rotenone (Rot, 100 nM) for 12 hours. […] Control indicates untreated. […] Control indicates untreated. (C) Immunocytochemical analysis of mitochondrial MEF2D after MPP+ and rotenone treatment. SN4741 cells treated as described in (A) were stained (scale bar, 10 μm). […] Experiments were repeated four times. Control indicates untreated. […] SN4741 cells were treated with MPP+ after infection with the control, Mt2Ddn or Mt2DVP16 or MtND6 lentiviruses for 24 hours (upper graph: different doses of MPP+ for 24 hours; lower graph: 5 μM of MPP+ for different times). Cell viability was measured by WST-1 assay (n=4; *p<0.05; **P<0.01). Control indicates the control vector group.
WST-1 assay was done using a kit (cat. no. 11644807001) from Roche and following procedures provided by the manufacturer. WST-1 (4-[3-(4-Iodophenyl)-2-(4-nitrophenyl)-2H-5-tetrazolio]-1,3-benzene disulfonate) is a water-soluble tetrazolium salt whose cleavage by cellular enzymes correlates with cell viability. Cells were seeded in 96-well plates and treated as indicated. Than 10 μl/well of premixed WST-1 Cell Proliferation Reagent was added, and the cells were incubated for an additional 4 hr under the same conditions. Absorbance at 450 nm was measured on a multi-well plate reader (Bio-Tek).

ND6 = test: In organello de novo transcription assay; details: mitochondria isolated from SN4741 cells infected with lentivirus for 24 hour
Text: (A) Mitochondria-targeting MEF2D (Mt2D) and mitochondria-targeting dominant-negative MEF2D (Mt2Ddn), which lacks the transactivation domain (TAD). […] Control indicates the control vector group. (C) Effects of Mt2D or Mt2Ddn on ND6 expression in SN4741 cells. Over-expression of Mt2Ddn in SN4741 cells reduced ND6 but not PPAR-γ coactivator 1 (PGC1) expression by western blotting (n=4, **p<0.01). Control indicates the control vector group. (D) Effects of over-expression of Mt2D or Mt2Ddn on mRNA levels of mitochondria encoded genes. […] Control indicates the control vector group. (E) Effects of Mt2D or Mt2Ddn on mtDNA L-strand transcription initiation in vitro (n=3; **P<0.01). A human mtDNA fragment containing mitochondrial L-strand promoter (LSP) and ND6 gene was used in the in vitro transcription assay. […] (F) Effects of Mt2D or Mt2Ddn on mtDNA de novo transcription in vivo (n=3; **P<0.01). Control (−) is without primers. Control (+) indicates the control vector group.
SN4741 cells were infected with Mt2D or Mt2Ddn lentiviruses for 24 hour. De novo transcription was measured in isolated mitochondria as described previously (46, 47). The mitochondrial fraction was suspended in transcription buffer containing 25 mM sucrose, 75 mM sorbitol, 100 mM KCl, 10 mM K2HPO4, 50 mM EDTA, 5 mM MgCl2, 1 mM ADP, 10 mM glutamate, 2.5 mM malate, and 10 mM Tris-HCl (pH7.4), with 1 mg of BSA per ml. […]

B1: Mt2Ddn: Mitochondria-targeting dominant-negative MEF2D: mouse MEF2D 1-131aa with mitochondria-targeting signal, lacks the transactivation domain (protein, UniProt Q63943 1-131, looked up, fragment)
chain: MGRKKIQIQRITDERNRQVTFTKRKFGLMKKAYELSVLCDCEIALIIFNHSNKLFQYASTDMDKVLLKYTEYNEPHESRTNADIIETLRKKGFNGCDSPEPDGEDSLEQSPLLEDKYRRASEELDGLFRRY
modifications: mitochondria-targeting signal added
- mitochondrial localization by immunocytochemical staining (MitoTracker) (SN4741 cells [1]): targeted exclusively to mitochondria
- sensitivity of cells to low dose MPP+ toxicity (SN4741 cells [2]; SN4741 cells infected with lentivirus 24 hours, then different doses of MPP+ for 24 hours): clearly sensitized
- cellular viability over time (SN4741 cells [2]; SN4741 cells infected with lentivirus, 5 μM MPP+ for different times): impaired
- de novo transcription of ND6 (ND6): reduced
